According to patent US20110300138A1 (published 2011):

Experiments:
[1] = target: TSHR260-alkaline phosphatase (TSHR260-AP) (human) (UniProt P05187); test: TSHR260-AP bridge ELISA, full length TSHR on wells; 10 µg/mL, diluted in HBD
[2] = target: TSHR260-alkaline phosphatase (TSHR260-AP) (human) (UniProt P05187); test: TSHR260-AP bridge ELISA, full length TSHR on wells; 0.1 µg/mL, diluted in HBD
[3] = target: TSHR260-alkaline phosphatase (TSHR260-AP) (human) (UniProt P05187); test: TSHR260-AP bridge ELISA, full length TSHR on wells; 250 µg/mL, diluted in HBD
[4] = target: TSHR260-alkaline phosphatase (TSHR260-AP) (human) (UniProt P05187); test: TSHR260-AP bridge ELISA, full length TSHR on wells; 0.005 µg/mL, diluted in HBD
[5] = target: TSHR260-alkaline phosphatase (TSHR260-AP) (human) (UniProt P05187); test: TSHR260-AP bridge ELISA, full length TSHR on wells; 10 µg/mL, diluted in assay buffer
[6] = target: TSHR260-alkaline phosphatase (TSHR260-AP) (human) (UniProt P05187); test: TSHR260-AP bridge ELISA, full length TSHR on wells; 0.1 µg/mL, diluted in assay buffer
[7] = target: TSHR260-alkaline phosphatase (TSHR260-AP) (human) (UniProt P05187); test: TSHR260-AP bridge ELISA, full length TSHR on wells; 250 µg/mL, diluted in assay buffer
[8] = target: TSHR260-alkaline phosphatase (TSHR260-AP) (human) (UniProt P05187); test: TSHR260-AP bridge ELISA, full length TSHR on wells; 0.005 µg/mL, diluted in assay buffer
[9] = target: T1, human TSH receptor (full length), coated on tubes (human, UniProt P16473 22-764); test: competition with 125I-K1-18 IgG on TSHR coated tubes; 1 µg/mL, diluted in assay buffer
T1 construct: TSHR coated tubes as described in WO2004/050708A2; Exact preparation on the tubes is not detailed here; also called thyroid stimulating hormone receptor
Procedure: (§1) Binding inhibition assays were carried out using TSHR coated tubes as described in WO2004/050708A2. […] After aspiration, the tubes were washed and 100 μL of ¹²⁵I-labelled protein (5×10⁴ cpm) added and incubated for 1 hour at room temperature with shaking. The tubes were then aspirated, washed and counted in a gamma counter. Inhibition of labelled protein binding was calculated as 100×[1−(cpm bound in the presence of test material/cpm bound in the presence of control material)].

[10] = target: T1, human TSH receptor (full length), …; test: competition with 125I-K1-18 IgG on TSHR coated tubes; 3 µg/mL, diluted in assay buffer
Procedure: as §1

[11] = target: T1, human TSH receptor (full length), …; test: competition with 125I-K1-18 IgG on TSHR coated tubes; 10 µg/mL, diluted in assay buffer
Procedure: as §1

[12] = target: T1, human TSH receptor (full length), …; test: competition with 125I-K1-18 IgG on TSHR coated tubes; 30 µg/mL, diluted in assay buffer
Procedure: as §1

[13] = target: T1, human TSH receptor (full length), …; test: competition with 125I-K1-18 IgG on TSHR coated tubes; 0.1 µg/mL, diluted in assay buffer
Procedure: as §1

[14] = target: T1, human TSH receptor (full length), …; test: competition with 125I-K1-18 IgG on TSHR coated tubes; 0.3 µg/mL, diluted in assay buffer
Procedure: as §1

[15] = target: T1, human TSH receptor (full length), …; test: competition with 125I-K1-18 IgG on TSHR coated tubes; 1 µg/mL, diluted in HBD serum pool
Procedure: as §1

[16] = target: T1, human TSH receptor (full length), …; test: competition with 125I-K1-18 IgG on TSHR coated tubes; 100 µg/mL, diluted in assay buffer
Procedure: as §1

[17] = target: T1, human TSH receptor (full length), …; test: competition with 125I-K1-18 IgG on TSHR coated tubes; 3 µg/mL, diluted in HBD serum pool
Procedure: as §1

[18] = target: T1, human TSH receptor (full length), …; test: competition with 125I-K1-18 IgG on TSHR coated tubes; 0.01 µg/mL, diluted in assay buffer
Procedure: as §1

[19] = target: T1, human TSH receptor (full length), …; test: competition with 125I-K1-18 IgG on TSHR coated tubes; 0.03 µg/mL, diluted in assay buffer
Procedure: as §1

[20] = target: T1, human TSH receptor (full length), …; test: competition with 125I-K1-18 IgG on TSHR coated tubes; 10 µg/mL, diluted in HBD serum pool
Procedure: as §1

[21] = target: T1, human TSH receptor (full length), …; test: competition with 125I-K1-18 IgG on TSHR coated tubes; 30 µg/mL, diluted in HBD serum pool
Procedure: as §1

[22] = target: T1, human TSH receptor (full length), …; test: competition with 125I-K1-18 IgG on TSHR coated tubes; 0.001 µg/mL, diluted in assay buffer
Procedure: as §1

[23] = target: T1, human TSH receptor (full length), …; test: competition with 125I-K1-18 IgG on TSHR coated tubes; 0.003 µg/mL, diluted in assay buffer
Procedure: as §1

[24] = target: T1, human TSH receptor (full length), …; test: competition with 125I-K1-18 IgG on TSHR coated tubes; 0.1 µg/mL, diluted in HBD serum pool
Procedure: as §1

[25] = target: T1, human TSH receptor (full length), …; test: competition with 125I-K1-18 IgG on TSHR coated tubes; 0.3 µg/mL, diluted in HBD serum pool
Procedure: as §1

[26] = target: T1, human TSH receptor (full length), …; test: competition with 125I-K1-18 IgG on TSHR coated tubes; 100 µg/mL, diluted in HBD serum pool
Procedure: as §1

[27] = target: T1, human TSH receptor (full length), …; test: competition with 125I-K1-18 IgG on TSHR coated tubes; 0.01 µg/mL, diluted in HBD serum pool
Procedure: as §1

[28] = target: T1, human TSH receptor (full length), …; test: competition with 125I-K1-18 IgG on TSHR coated tubes; 0.03 µg/mL, diluted in HBD serum pool
Procedure: as §1

[29] = target: T1, human TSH receptor (full length), …; test: competition with 125I-K1-18 IgG on TSHR coated tubes; 0.001 µg/mL, diluted in HBD serum pool
Procedure: as §1

[30] = target: T1, human TSH receptor (full length), …; test: competition with 125I-K1-18 IgG on TSHR coated tubes; 0.003 µg/mL, diluted in HBD serum pool
Procedure: as §1

A Mean absorbance at 405 nm (absorbance at 405 nm) [1] of -0.008, a Mean absorbance at 405 nm (absorbance at 405 nm) [2] of -0.009 and a Mean absorbance at 405 nm (absorbance at 405 nm) [3] of -0.008 were found for 5C9 Fab in this work. It also gave a Mean absorbance at 405 nm (absorbance at 405 nm) [4] of -0.012, a Mean absorbance at 405 nm (absorbance at 405 nm) [5] of 0.016 and a Mean absorbance at 405 nm (absorbance at 405 nm) [6] of -0.009. It also gave a Mean absorbance at 405 nm (absorbance at 405 nm) [7] of 0.204 and a Mean absorbance at 405 nm (absorbance at 405 nm) [8] of 0.

B1: K1-70 IgG (antibody, V domains shown)
VH: EVQLVQSGAEVKKPGQSLKISCKASGYSLTDNWIGWVRQKPGKGLEWMGIIYPGDSDTRYSPSFQGQVTISADKSINTAYLQWSSLKASDTAIYYCVGLDWNYNPLRYWGPGTLVTVSS
VL: QSVLTQPPSVSAAPGQKVTISCSGSSSDIGSNYVSWYQQFPGTAPKLLIYDNNKRPSAIPDRFSGSKSGTSATLGITGLQTGDEADYYCGTWDSRLGIAVFGGGTQLTVLG
B1 was tested, and the “Inhibition of binding (%)” value [9] was 92%, the “Inhibition of binding (%)” value [10] was 92.9% and the “Inhibition of binding (%)” value [11] was 91.9%. For the same molecule, the “Inhibition of binding (%)” value [12] was 93.1%, the “Inhibition of binding (%)” value [13] was 89.2% and the “Inhibition of binding (%)” value [14] was 91.5%. For the same molecule, the “Inhibition of binding (%)” value [15] was 92.9%, the “Inhibition of binding (%)” value [16] was 94.5% and the “Inhibition of binding (%)” value [17] was 94.1%. The “Inhibition of binding (%)” value [18] was 6.8%, the “Inhibition of binding (%)” value [19] was 45.6% and the “Inhibition of binding (%)” value [20] was 95.1%. The “Inhibition of binding (%)” value [21] was 93.9%, the “Inhibition of binding (%)” value [22] was -1.7% and the “Inhibition of binding (%)” value [23] was 0.1%. For the same molecule, the “Inhibition of binding (%)” value [24] was 55.6%, the “Inhibition of binding (%)” value [25] was 82.2% and the “Inhibition of binding (%)” value [26] was 95.3%. For the same molecule, the “Inhibition of binding (%)” value [27] was 6.1%, the “Inhibition of binding (%)” value [28] was 17.8% and the “Inhibition of binding (%)” value [29] was 0%. The “Inhibition of binding (%)” value [30] was 2.1%.

B2: K1-18 IgG (antibody, V domains shown)
VH: EVQLVQSGAEVKKPGESLKISCKGSGYSFTNYWIGWVRQMPGKGLEWMGIIYPYDSDTRYSPSFEGQVTISADKSIRTAYLHWSSLKASDTAMYYCVRPRDGSYPYDAFDIWGQGTMVTVSS
VL: EIVLTQSPGTLSLSPGERATLSCRASQSVSNNYLAWYQQKPGQAPRLLIYGASSRATGIPDRFSGSGSGTDFTLTISRLEPEDFAVYYCQHCGSSLRAFGQGTKVEIKR
In the case of B2, the “Inhibition of binding (%)” value [9] is reported as 92.8%, the “Inhibition of binding (%)” value [10] is reported as 93% and the “Inhibition of binding (%)” value [11] is reported as 92.5%. The “Inhibition of binding (%)” value [12] was 93.8%, the “Inhibition of binding (%)” value [13] was 78.9% and the “Inhibition of binding (%)” value [14] was 90.9%. For the same molecule, the “Inhibition of binding (%)” value [15] was 91.1%, the “Inhibition of binding (%)” value [16] was 94.5% and the “Inhibition of binding (%)” value [17] was 94%. For the same molecule, the “Inhibition of binding (%)” value [18] was 14.9%, the “Inhibition of binding (%)” value [19] was 39.3% and the “Inhibition of binding (%)” value [20] was 94%. The “Inhibition of binding (%)” value [21] was 95.6%, the “Inhibition of binding (%)” value [22] was 6.9% and the “Inhibition of binding (%)” value [23] was 2.9%. The “Inhibition of binding (%)” value [24] was 49.4%, the “Inhibition of binding (%)” value [25] was 78.3% and the “Inhibition of binding (%)” value [26] was 96.1%. The “Inhibition of binding (%)” value [27] was 5.8%, the “Inhibition of binding (%)” value [28] was 15.1% and the “Inhibition of binding (%)” value [29] was 2.7%. The “Inhibition of binding (%)” value [30] was -0.3%.

B3: K1-18 Fab (Fab, V domains shown)
VH: EVQLVQSGAEVKKPGESLKISCKGSGYSFTNYWIGWVRQMPGKGLEWMGIIYPYDSDTRYSPSFEGQVTISADKSIRTAYLHWSSLKASDTAMYYCVRPRDGSYPYDAFDIWGQGTMVTVSS
VL: EIVLTQSPGTLSLSPGERATLSCRASQSVSNNYLAWYQQKPGQAPRLLIYGASSRATGIPDRFSGSGSGTDFTLTISRLEPEDFAVYYCQHCGSSLRAFGQGTKVEIKR
In the case of B3, the “Inhibition of binding (%)” value [9] is reported as 77.5%, the “Inhibition of binding (%)” value [10] is reported as 81.9% and the “Inhibition of binding (%)” value [11] is reported as 81.8%. The “Inhibition of binding (%)” value [12] was 83%, the “Inhibition of binding (%)” value [13] was 56.7% and the “Inhibition of binding (%)” value [14] was 71.1%. The “Inhibition of binding (%)” value [15] was 80.2%, the “Inhibition of binding (%)” value [16] was 86.2% and the “Inhibition of binding (%)” value [17] was 83.4%. The “Inhibition of binding (%)” value [18] was 8.8%, the “Inhibition of binding (%)” value [19] was 24.8% and the “Inhibition of binding (%)” value [20] was 83%. The “Inhibition of binding (%)” value [21] was 85%, the “Inhibition of binding (%)” value [22] was -2.6% and the “Inhibition of binding (%)” value [23] was 0.8%. For the same molecule, the “Inhibition of binding (%)” value [24] was 39%, the “Inhibition of binding (%)” value [25] was 65.5% and the “Inhibition of binding (%)” value [26] was 84.8%. The “Inhibition of binding (%)” value [27] was 1.8%, the “Inhibition of binding (%)” value [28] was 10.3% and the “Inhibition of binding (%)” value [29] was -1%. The “Inhibition of binding (%)” value [30] was 1%.
